Measured values published in patent US20090170141A1 (University of Texas, published 2009).
Blank lines part the entries; values can stand above or below the molecule they belong to.

What was measured:
[1] = target: T1, recombinant wild-type pro-ghrelin-His8 (mouse, UniProt Q9EQX0 24-117); assay: cell-based or functional assay
T1 sequence: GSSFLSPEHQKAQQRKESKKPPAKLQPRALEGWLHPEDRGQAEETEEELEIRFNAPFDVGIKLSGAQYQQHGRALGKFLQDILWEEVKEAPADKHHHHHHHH

[2] = target: T2, recombinant wild-type pro-ghrelin-His8, Q9EQX0
T2 chain: T1 sequence

acylating activity of GOAT in Sf9 membranes against that in INS-1 cell membranes [1]: 5 fold
Molecule: GOAT expressed in Sf9 insect cells from pFastBac HT-A (His10-tag) (from UniProt P0C7A3 1-435) (enzyme)

3H-radioactivity covalently linked to pro-ghrelin, in vitro assay with [3H]octanoyl CoA and INS-1 cell membranes, against mock-transfected membranes [1]: 5 fold
B1: mouse ghrelin O-acyltransferase (GOAT) (enzyme)
chain: MDWLQLFFLHPLSFYQGAAFPFALLFNYLCILDTFSTRARYLFLLAGGGVLAFAAMGPYSLLIFIPALCAVALVSFLSPQEVHRLTFFFQMGWQTLCHLGLHYTEYYLGEPPPVRFYITLSSLMLLTQRVTSLSLDICEGKVEAPRRGIRSKSSFSEHLWDALPHFSYLLFFPALLGGSLCSFRRFQACVQRSSSLYPSISFRALTWRGLQILGLECLKVALRSAVSAGAGLDDCQRLECIYLMWSTAWLFKLTYYSHWILDDSLLHAAGFGAEAGQGPGEEGYVPDVDIWTLETTHRISLFARQWNRSTALWLRRLVFRKSRRWPLLQTFAFSAWWHGLHPGQVFGFLCWSVMVKADYLIHTFANVCIRSWPLRLLYRALTWAHTQLIIAYIMLAVEGRSLSSLCQLCCSYNSLFPVMYGLLLFLLAERKDKRN
amount of [3H]octanoyl pro-ghrelin formed, in vitro assay with Sf9 membranes, against S3A mutant pro-ghrelin as substrate [2]: more than 5-fold higher than when the S3A mutant pro-ghrelin was used as the substrate
